Measured values: patent US20140087995A1 (published 2014)
Numbered stars: 1 amine (or outer) side, 2 acyl side, 3 side chain; on linkers, the order of the positions; unused ones are H or OH. Bridge positions count the residues as written; N and C are the ends. Side chains are listed from the residue outwards. Ends that are not written are not given here. * marks the point of attachment. C20 diacid = O=C(O)CCCCCCCCCCCCCCCCCCC(=O)*; γGlu = O=C(O)[C@H](CCC(=O)[*:2])N[*:1]; AEEA = NCCOCCOCC(=O)O

B1: N^α1 N^α1-[(4S)-4-carboxy-4-[[(4S)-4-carboxy-4-(19-carboxynonadecanoylamino)butanoyl]amino]butanoyl]-[Glu14,Arg17,Pro21,Pro27]-h-amylin (peptide)
peptide: {C20 diacid-γGlu-γGlu}-KCNTATCATQRLAEFLRHSSPNFGAIPSSTNVGSNTY-NH2
modifications: disulfide 2-7
SMILES: CC[C@H](C)[C@H](NC(=O)[C@H](C)NC(=O)CNC(=O)[C@H](Cc1ccccc1)NC(=O)[C@H](CC(N)=O)NC(=O)[C@@H]1CCCN1C(=O)[C@H](CO)NC(=O)[C@H](CO)NC(=O)[C@H](Cc1c[nH]cn1)NC(=O)[C@H](CCCNC(=N)N)NC(=O)[C@H](CC(C)C)NC(=O)[C@H](Cc1ccccc1)NC(=O)[C@H](CCC(=O)O)NC(=O)[C@H](C)NC(=O)[C@H](CC(C)C)NC(=O)[C@H](CCCNC(=N)N)NC(=O)[C@H](CCC(N)=O)NC(=O)[C@@H](NC(=O)[C@H](C)NC(=O)[C@@H]1CSSC[C@H](NC(=O)[C@H](CCCCN)NC(=O)CC[C@H](NC(=O)CC[C@H](NC(=O)CCCCCCCCCCCCCCCCCCC(=O)O)C(=O)O)C(=O)O)C(=O)N[C@@H](CC(N)=O)C(=O)N[C@@H]([C@@H](C)O)C(=O)N[C@@H](C)C(=O)N[C@@H]([C@@H](C)O)C(=O)N1)[C@@H](C)O)C(=O)N1CCC[C@H]1C(=O)N[C@@H](CO)C(=O)N[C@@H](CO)C(=O)N[C@H](C(=O)N[C@@H](CC(N)=O)C(=O)N[C@H](C(=O)NCC(=O)N[C@@H](CO)C(=O)N[C@@H](CC(N)=O)C(=O)N[C@H](C(=O)N[C@@H](Cc1ccc(O)cc1)C(N)=O)[C@@H](C)O)C(C)C)[C@@H](C)O
notes: also called compound 15
B2: N^α1-[(4S)-4-carboxy-4-(19-carboxynonadecanoylamino)butanoyl]-[Arg17,Pro21,Pro27,Pro31,Glu35]-h-amylin (peptide)
peptide: {C20 diacid-γGlu}-KCNTATCATQRLANFLRHSSPNFGAIPSSTPVGSETY-NH2
modifications: disulfide 2-7
SMILES: CC[C@H](C)[C@H](NC(=O)[C@H](C)NC(=O)CNC(=O)[C@H](Cc1ccccc1)NC(=O)[C@H](CC(N)=O)NC(=O)[C@@H]1CCCN1C(=O)[C@H](CO)NC(=O)[C@H](CO)NC(=O)[C@H](Cc1c[nH]cn1)NC(=O)[C@H](CCCNC(=N)N)NC(=O)[C@H](CC(C)C)NC(=O)[C@H](Cc1ccccc1)NC(=O)[C@H](CC(N)=O)NC(=O)[C@H](C)NC(=O)[C@H](CC(C)C)NC(=O)[C@H](CCCNC(=N)N)NC(=O)[C@H](CCC(N)=O)NC(=O)[C@@H](NC(=O)[C@H](C)NC(=O)[C@@H]1CSSC[C@H](NC(=O)[C@H](CCCCN)NC(=O)CC[C@H](NC(=O)CCCCCCCCCCCCCCCCCCC(=O)O)C(=O)O)C(=O)N[C@@H](CC(N)=O)C(=O)N[C@@H]([C@@H](C)O)C(=O)N[C@@H](C)C(=O)N[C@@H]([C@@H](C)O)C(=O)N1)[C@@H](C)O)C(=O)N1CCC[C@H]1C(=O)N[C@@H](CO)C(=O)N[C@@H](CO)C(=O)N[C@H](C(=O)N1CCC[C@H]1C(=O)N[C@H](C(=O)NCC(=O)N[C@@H](CO)C(=O)N[C@@H](CCC(=O)O)C(=O)N[C@H](C(=O)N[C@@H](Cc1ccc(O)cc1)C(N)=O)[C@@H](C)O)C(C)C)[C@@H](C)O
notes: also called compound 28
B3: N^α1-[(4S)-4-carboxy-4-(19-carboxynonadecanoylamino)butanoyl]-[His14,Arg17,Pro21,Pro27,Glu35]-h-amylin (peptide)
peptide: {C20 diacid-γGlu}-KCNTATCATQRLAHFLRHSSPNFGAIPSSTNVGSETY-NH2
modifications: disulfide 2-7
SMILES: CC[C@H](C)[C@H](NC(=O)[C@H](C)NC(=O)CNC(=O)[C@H](Cc1ccccc1)NC(=O)[C@H](CC(N)=O)NC(=O)[C@@H]1CCCN1C(=O)[C@H](CO)NC(=O)[C@H](CO)NC(=O)[C@H](Cc1c[nH]cn1)NC(=O)[C@H](CCCNC(=N)N)NC(=O)[C@H](CC(C)C)NC(=O)[C@H](Cc1ccccc1)NC(=O)[C@H](Cc1c[nH]cn1)NC(=O)[C@H](C)NC(=O)[C@H](CC(C)C)NC(=O)[C@H](CCCNC(=N)N)NC(=O)[C@H](CCC(N)=O)NC(=O)[C@@H](NC(=O)[C@H](C)NC(=O)[C@@H]1CSSC[C@H](NC(=O)[C@H](CCCCN)NC(=O)CC[C@H](NC(=O)CCCCCCCCCCCCCCCCCCC(=O)O)C(=O)O)C(=O)N[C@@H](CC(N)=O)C(=O)N[C@@H]([C@@H](C)O)C(=O)N[C@@H](C)C(=O)N[C@@H]([C@@H](C)O)C(=O)N1)[C@@H](C)O)C(=O)N1CCC[C@H]1C(=O)N[C@@H](CO)C(=O)N[C@@H](CO)C(=O)N[C@H](C(=O)N[C@@H](CC(N)=O)C(=O)N[C@H](C(=O)NCC(=O)N[C@@H](CO)C(=O)N[C@@H](CCC(=O)O)C(=O)N[C@H](C(=O)N[C@@H](Cc1ccc(O)cc1)C(N)=O)[C@@H](C)O)C(C)C)[C@@H](C)O
notes: also called compound 30
B4: N^α1-[2-[2-[2-[[2-[2-[2-[[(4S)-4-carboxy-4-(19-carboxynonadecanoylamino)butanoyl]amino]ethoxy]ethoxy]acetyl]amino]ethoxy]ethoxy]acetyl]-[Glu14,Arg17,Pro21,Pro27 … (peptide)
peptide: KCNTATCATQRLAEFLRHSSPNFGAIPSSTNVGSNTY
modifications: C20 diacid-gGlu-2xOEG on alpha amino group of N-terminal Lys 1; disulfide Cys2-Cys7; C-terminal amide (as human amylin)
notes: also called compound 19
B5: N^α1-[(4S)-4-carboxy-4-(19-carboxynonadecanoylamino)butanoyl]-[Arg17,Pro21,Pro27,His34]-h-amylin (peptide)
peptide: KCNTATCATQRLANFLRHSSPNFGAIPSSTNVGHNTY
modifications: C20 diacid-gGlu on alpha amino group of N-terminal Lys 1; disulfide Cys2-Cys7; C-terminal amide (as human amylin)
notes: also called compound 40
B6: N^ε1-[2-[2-[2-[[2-[2-[2-[[(4S)-4-carboxy-4-(19-carboxynonadecanoylamino)butanoyl]amino]ethoxy]ethoxy]acetyl]amino]ethoxy]ethoxy]acetyl]-[Arg17,Pro21,Pro27,Glu35 … (peptide)
peptide: K([AEEA-AEEA-γGlu-C20 diacid])CNTATCATQRLANFLRHSSPNFGAIPSSTNVGSETY-NH2
modifications: disulfide 2-7; N-terminus assumed
SMILES: CC[C@H](C)[C@H](NC(=O)[C@H](C)NC(=O)CNC(=O)[C@H](Cc1ccccc1)NC(=O)[C@H](CC(N)=O)NC(=O)[C@@H]1CCCN1C(=O)[C@H](CO)NC(=O)[C@H](CO)NC(=O)[C@H](Cc1c[nH]cn1)NC(=O)[C@H](CCCNC(=N)N)NC(=O)[C@H](CC(C)C)NC(=O)[C@H](Cc1ccccc1)NC(=O)[C@H](CC(N)=O)NC(=O)[C@H](C)NC(=O)[C@H](CC(C)C)NC(=O)[C@H](CCCNC(=N)N)NC(=O)[C@H](CCC(N)=O)NC(=O)[C@@H](NC(=O)[C@H](C)NC(=O)[C@@H]1CSSC[C@H](NC(=O)[C@@H](N)CCCCNC(=O)COCCOCCNC(=O)COCCOCCNC(=O)CC[C@H](NC(=O)CCCCCCCCCCCCCCCCCCC(=O)O)C(=O)O)C(=O)N[C@@H](CC(N)=O)C(=O)N[C@@H]([C@@H](C)O)C(=O)N[C@@H](C)C(=O)N[C@@H]([C@@H](C)O)C(=O)N1)[C@@H](C)O)C(=O)N1CCC[C@H]1C(=O)N[C@@H](CO)C(=O)N[C@@H](CO)C(=O)N[C@H](C(=O)N[C@@H](CC(N)=O)C(=O)N[C@H](C(=O)NCC(=O)N[C@@H](CO)C(=O)N[C@@H](CCC(=O)O)C(=O)N[C@H](C(=O)N[C@@H](Cc1ccc(O)cc1)C(N)=O)[C@@H](C)O)C(C)C)[C@@H](C)O
notes: also called compound 25
B7: N^α1-[(4S)-4-carboxy-4-(19-carboxynonadecanoylamino)butanoyl]-[Arg17,Pro21,Pro27,Arg34]-h-amylin (peptide)
peptide: KCNTATCATQRLANFLRHSSPNFGAIPSSTNVGRNTY
modifications: C20 diacid-gGlu on alpha amino group of N-terminal Lys 1; disulfide Cys2-Cys7; C-terminal amide (as human amylin)
notes: also called compound 39
B8: N^α1-[(4S)-4-carboxy-4-(19-carboxynonadecanoylamino)butanoyl]-[Arg17,Pro21,Pro27,Glu35]-h-amylin (peptide)
peptide: KCNTATCATQRLANFLRHSSPNFGAIPSSTNVGSETY
modifications: C20 diacid-gGlu on alpha amino group of N-terminal Lys 1; disulfide Cys2-Cys7; C-terminal amide (as human amylin)
notes: also called compound 23
B9: N^α1-[(4S)-4-carboxy-4-(19-carboxynonadecanoylamino)butanoyl]-[Arg17,Pro21,Pro27,Lys35]-h-amylin (peptide)
peptide: KCNTATCATQRLANFLRHSSPNFGAIPSSTNVGSKTY
modifications: C20 diacid-gGlu on alpha amino group of N-terminal Lys 1; disulfide Cys2-Cys7; C-terminal amide (as human amylin)
notes: also called compound 34
B10: N^ε1-[2-[2-[2-[[(4S)-4-carboxy-4-(19-carboxynonadecanoylamino)butanoyl]amino]ethoxy]ethoxy]acetyl]-[Ala14,Arg17,Pro21,Pro27,Pro31]-h-amylin (peptide)
peptide: K([AEEA-γGlu-C20 diacid])CNTATCATQRLAAFLRHSSPNFGAIPSSTPVGSNTY-NH2
modifications: disulfide 2-7; N-terminus assumed
SMILES: CC[C@H](C)[C@H](NC(=O)[C@H](C)NC(=O)CNC(=O)[C@H](Cc1ccccc1)NC(=O)[C@H](CC(N)=O)NC(=O)[C@@H]1CCCN1C(=O)[C@H](CO)NC(=O)[C@H](CO)NC(=O)[C@H](Cc1c[nH]cn1)NC(=O)[C@H](CCCNC(=N)N)NC(=O)[C@H](CC(C)C)NC(=O)[C@H](Cc1ccccc1)NC(=O)[C@H](C)NC(=O)[C@H](C)NC(=O)[C@H](CC(C)C)NC(=O)[C@H](CCCNC(=N)N)NC(=O)[C@H](CCC(N)=O)NC(=O)[C@@H](NC(=O)[C@H](C)NC(=O)[C@@H]1CSSC[C@H](NC(=O)[C@@H](N)CCCCNC(=O)COCCOCCNC(=O)CC[C@H](NC(=O)CCCCCCCCCCCCCCCCCCC(=O)O)C(=O)O)C(=O)N[C@@H](CC(N)=O)C(=O)N[C@@H]([C@@H](C)O)C(=O)N[C@@H](C)C(=O)N[C@@H]([C@@H](C)O)C(=O)N1)[C@@H](C)O)C(=O)N1CCC[C@H]1C(=O)N[C@@H](CO)C(=O)N[C@@H](CO)C(=O)N[C@H](C(=O)N1CCC[C@H]1C(=O)N[C@H](C(=O)NCC(=O)N[C@@H](CO)C(=O)N[C@@H](CC(N)=O)C(=O)N[C@H](C(=O)N[C@@H](Cc1ccc(O)cc1)C(N)=O)[C@@H](C)O)C(C)C)[C@@H](C)O
notes: also called compound 72

What follows are binders tested against T1, human calcitonin receptor (human, UniProt P30988 25-474) (assay: SPA competition with 125I-calcitonin, membranes of BHK hCTR cells (Assay VII)).
T1 construct: whole, on cells; also called hCTR; hCT
T1 sequence (looked up): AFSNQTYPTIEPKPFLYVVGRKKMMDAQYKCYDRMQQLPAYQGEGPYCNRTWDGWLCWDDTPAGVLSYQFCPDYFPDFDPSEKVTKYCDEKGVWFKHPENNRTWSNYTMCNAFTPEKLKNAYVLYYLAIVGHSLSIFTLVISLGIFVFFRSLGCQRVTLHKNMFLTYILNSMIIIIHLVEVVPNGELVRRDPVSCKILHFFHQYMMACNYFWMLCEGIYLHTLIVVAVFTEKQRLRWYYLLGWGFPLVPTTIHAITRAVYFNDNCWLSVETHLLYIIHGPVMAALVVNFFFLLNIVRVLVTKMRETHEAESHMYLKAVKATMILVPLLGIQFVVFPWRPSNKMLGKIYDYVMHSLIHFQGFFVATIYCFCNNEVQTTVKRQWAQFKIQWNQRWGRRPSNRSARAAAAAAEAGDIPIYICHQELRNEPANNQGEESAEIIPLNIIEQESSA
Procedure: Membranes were prepared in the following way; the cells were rinsed with PBS and incubated with Versene for approximately 5 min before harvesting. The cells were flushed with PBS and the cell-suspension was centrifuged for 5 min at 1000 rpm. Cells were homogenized (Ultrathurrax) in a buffer containing 20 mM Na-HEPES and 10 mM EDTA (pH 7.4) and centrifuged at 20.000 rpm for 15 min. The resulting pellet was resuspended, homogenized and centrifuged (20.000 rpm, 15 min) in a buffer containing 20 mM Na-HEPES and 0.1 mM EDTA (pH 7.4, buffer 2). The resulting pellet was resuspended in buffer 2 and protein concentration was measured (BCA protein Assay, Pierce). The homogenate was kept cold during the whole procedure. The membranes were kept at −80° C. until use. Assay was performed in a 384 well Optiplate (PerkinElmer) in a total volume of 40 ul. Membranes were mixed with SPA beads. Final concentration of membranes 35 ng/μL final and Final concentration of SPA beads was 0.05 mg/well. Test-compounds were dissolved in DMSO and further diluted in assay buffer (50 mM Hepes, pH 7.4, 1 mM CaCl2, 5 mM MgCl₂, 0.1% OA and 0.02% Tween20). […] The final mixture was incubated for 120 min with shaking at 400 rpm at 25° C. prior to centrifugation (1500 rpm, 10 min). Samples were analyzed on TopCounter™ (Packard). The […] was calculated using (one site binding competition analysis) GraphPad Prism5 as a measure of receptor affinity.
B1 showed an IC50 of 15.5 nM. For B2, the IC50 was 12.5 nM. In the case of B3, the IC50 is reported as 21.6 nM. B4 showed an IC50 of 20.4 nM. Work on B5 yielded an IC50 of 17.1 nM. With B6 the IC50 was 43.4 nM. Binder B7 has an IC50 of 19.3 nM. For B8, the IC50 was 21.8 nM. With B9 the IC50 was 73.4 nM. B10 gave an IC50 of 42.4 nM.
